Several values for one entry are separate records, joined by “and”; a condition that tells them apart may be missing. Identical values can stand only once.

The text below walks through data of patent US12371675B2, “Process and microorganism for synthesis of adipic acid from carboxylic acids” (THE GOVERNING COUNCIL OF THE UNIVERSITY OF TORONTO, priority 2015, dated 2025).

Data set [1] in a line: CAR reductase activity, NADPH oxidation at 340 nm. It is filed as biochemical. The following applies: ND = no activity was detected. The procedure:
Reductase activity was measured spectrophotometrically by following the oxidation of NADPH depletion at 340 nm.
It has been shown that the N. iowensis CAR has a broad substrate range, though its maximal activity was usually observed with aromatic substrates such as benzoic and cinnamic acids. CARs gene sequences homologues to the N. iowensis CAR (Uniprot number: Q6RKB1), were selected from GenBank database. Based on presence of adenylation (AMP-binding PF00501) and reduction (NAD-binding PF07993) domains accompanied with phosphopantetheinyl binding motif (PF00530) 13 CAR genes (mostly from Mycobacterium) were cloned and expressed in E. coli. (Table 4). As CAR activation enzymes, phosphopantetheinyl transferases (PPTs) from E. coli (P19925) and Bacillus subtilis (P39135), were used which were co-expressed with the selected CAR genes from a separate plasmid. Using 1-liter E. coli cultures with overnight induction by IPTG, 12 soluble CAR proteins were purified using affinity chromatography on a Ni-NTA resin.

Data set [2] can be described thus: In vitro biotransformation by CARs coupled with aldehyde reductase PP_3370. It is filed as biochemical. The following applies: Table 12 title: 10 mM adipic acid (12 h) in vitro, CARs coupled with PP3370.
Assay in data set [3]: as above
The data set is classed as biochemical. To be noted: Table 12 title: 10 mM 4-hydroxybutyric acid (12 h) in vitro, CARs coupled with PP3370.

The nature of data set [4]: In vivo whole cell biotransformation by E. coli expressing CARs. The data set is classed as cell-based. To be noted: 24 h; for In vivo conversion efficiency (%) to: 1,4-butanediol: 10 mM 4-hydroxybutyric acid; for In vivo conversion efficiency (%) to: 1,6-hexanediol / In vivo conversion efficiency (%) to: 6-hydroxyhexanoic acid: 10 mM adipic acid. The procedure: E. coli cells expressing recombinant CARs with BSU03570 phosphopantetheinyl transferase were grown on LB media with […], supplemented with 2% glycerol aerobically on 37° C., until the culture optical density (OD 600 nm) reached 0.6-0.8. At this point protein expression was induced with 0.4 mM IPTG and substrate (adipic acid or 4-hydroxybutyric acid) for final 10 mM concentration was added. Samples were taken at 6 h, 24 h and 48 h, centrifuged, supernatant was filtered through 10 kDa centrifugal filters. Products were analyzed with HPLC or LC-MS. Negative control experiments were performed using E. coli cells harboring empty plasmids. All results of in vivo experiments are means from at least two independent determinations.

B1: MSMEG_2956: carboxylate reductase (CAR) from M. smegmatis ATCC 700084 (protein)
chain: MTIETREDRFNRRIDHLFETDPQFAAARPDEAISAAAADPELRLPAAVKQILAGYADRPALGKRAVEFVTDEEGRTTAKLLPRFDTITYRQLAGRIQAVTNAWHNHPVNAGDRVAILGFTSVDYTTIDIALLELGAVSVPLQTSAPVAQLQPIVAETEPKVIASSVDFLADAVALVESGPAPSRLVVFDYSHEVDDQREAFEAAKGKLAGTGVVVETITDALDRGRSLADAPLYVPDEADPLTLLIYTSGSTGTPKGAMYPESKTATMWQAGSKARWDETLGVMPSITLNFMPMSHVMGRGILCSTLASGGTAYFAARSDLSTFLEDLALVRPTQLNFVPRIWDMLFQEYQSRLDNRRAEGSEDRAEAAVLEEVRTQLLGGRFVSALTGSAPISAEMKSWVEDLLDMHLLEGYGSTEAGAVFIDGQIQRPPVIDYKLVDVPDLGYFATDRPYPRGELLVKSEQMFPGYYKRPEITAEMFDEDGYYRTGDIVAELGPDHLEYLDRRNNVLKLSQGEFVTVSKLEAVFGDSPLVRQIYVYGNSARSYLLAVVVPTEEALSRWDGDELKSRISDSLQDAARAAGLQSYEIPRDFLVETTPFTLENGLLTGIRKLARPKLKAHYGERLEQLYTDLAEGQANELRELRRNGADRPVVETVSRAAVALLGASVTDLRSDAHFTDLGGDSLSALSFSNLLHEIFDVDVPVGVIVSPATDLAGVAAYIEGELRGSKRPTYASVHGRDATEVRARDLALGKFIDAKTLSAAPGLPRSGTEIRTVLLTGATGFLGRYLALEWLERMDLVDGKVICLVRARSDDEARARLDATFDTGDATLLEHYRALAADHLEVIAGDKGEADLGLDHDTWQRLADTVDLIVDPAALVNHVLPYSQMFGPNALGTAELIRIALTTTIKPYVYVSTIGVGQGISPEAFVEDADIREISATRRVDDSYANGYGNSKWAGEVLLREAHDWCGLPVSVFRCDMILADTTYSGQLNLPDMFTRLMLSLVATGIAPGSFYELDADGNRQRAHYDGLPVEFIAEAISTIGSQVTDGFETFHVMNPYDDGIGLDEYVDWLIEAGYPVHRVDDYATWLSRFETALRALPERQRQASLLPLLHNYQQPSPPVCGAMAPTDRFRAAVQDAKIGPDKDIPHVTADVIVKYISNLQMLGLL
As for B1, the “Activity [U/mg protein] adipic acid, 5 mM” value in data set [1] is 0.078 ± 0.001 U/mg protein. For the same molecule, in data set [2], the “In vitro conversion efficiency % to: 1,6-hexanediol” value came to 27.7 ± 10.3% and the “In vitro conversion efficiency % to: 6-hydroxyhexanoic acid” value is recorded as 34.2 ± 9.1%. The “In vivo conversion efficiency (%) to: 1,4-butanediol” value in data set [3] amounted to 59.4 ± 7.3%. Besides, in data set [4], the “In vivo conversion efficiency (%) to: 1,4-butanediol” value was determined as 59.4 ± 7.3%, the “In vivo conversion efficiency (%) to: 1,6-hexanediol” value is 27.7 ± 10.3% and the “In vivo conversion efficiency (%) to: 6-hydroxyhexanoic acid” value was 34.2 ± 9.1%.

B2: MSMEG_5739: carboxylate reductase (CAR) from M. smegmatis ATCC 700084 (protein)
chain: MTSDVHDATDGVTETALDDEQSTRRIAELYATDPEFAAAAPLPAVVDAAHKPGLRLAEILQTLFTGYGDRPALGYRARELATDEGGRTVTRLLPRFDTLTYAQVWSRVQAVAAALRHNFAQPIYPGDAVATIGFASPDYLTLDLVCAYLGLVSVPLQHNAPVSRLAPILAEVEPRILTVSAEYLDLAVESVRDVNSVSQLVVFDHHPEVDDHRDALARAREQLAGKGIAVTTLDAIADEGAGLPAEPIYTADHDQRLAMILYTSGSTGAPKGAMYTEAMVARLWTMSFITGDPTPVINVNFMPLNHLGGRIPISTAVQNGGTSYFVPESDMSTLFEDLALVRPTELGLVPRVADMLYQHHLATVDRLVTQGADELTAEKQAGAELREQVLGGRVITGFVSTAPLAAEMRAFLDITLGAHIVDGYGLTETGAVTRDGVIVRPPVIDYKLIDVPELGYFSTDKPYPRGELLVRSQTLTPGYYKRPEVTASVFDRDGYYHTGDVMAETAPDHLVYVDRRNNVLKLAQGEFVAVANLEAVFSGAALVRQIFVYGNSERSFLLAVVVPTPEALEQYDPAALKAALADSLQRTARDAELQSYEVPADFIVETEPFSAANGLLSGVGKLLRPNLKDRYGQRLEQMYADIAATQANQLRELRRAAATQPVIDTLTQAAATILGTGSEVASDAHFTDLGGDSLSALTLSNLLSDFFGFEVPVGTIVNPATNLAQLAQHIEAQRTAGDRRPSFTTVHGADATEIRASELTLDKFIDAETLRAAPGLPKVTTEPRTVLLSGANGWLGRFLTLQWLERLAPVGGTLITIVRGRDDAAARARLTQAYDTDPELSRRFAELADRHLRVVAGDIGDPNLGLTPEIWHRLAAEVDLVVHPAALVNHVLPYRQLFGPNVVGTAEVIKLALTERIKPVTYLSTVSVAMGIPDFEEDGDIRTVSPVRPLDGGYANGYGNSKWAGEVLLREAHDLCGLPVATFRSDMILAHPRYRGQVNVPDMFTRLLLSLLITGVAPRSFYIGDGERPRAHYPGLTVDFVAEAVTTLGAQQREGYVSYDVMNPHDDGISLDVFVDWLIRAGHPIDRVDDYDDWVRRFETALTALPEKRRAQTVLPLLHAFRAPQAPLRGAPEPTEVFHAAVRTAKVGPGDIPHLDEALIDKYIRDLREFGLI
Turning to B2, in data set [1], the “Activity [U/mg protein] 4-hydroxybutyric acid, 5 mM” value stood at 0.032 ± 0.024 U/mg protein and the “Activity [U/mg protein] adipic acid, 5 mM” value is 0.054 ± 0.004 U/mg protein. In data set [2], the “In vitro conversion efficiency % to: 1,6-hexanediol” value was 57.2 ± 0.6% and the “In vitro conversion efficiency % to: 6-hydroxyhexanoic acid” value turned out to be 9.1 ± 0.7%. For the same molecule, the “In vivo conversion efficiency (%) to: 1,4-butanediol” value in data set [3] turned out to be 86.1 ± 5.2%. Further, in data set [4], the “In vivo conversion efficiency (%) to: 1,4-butanediol” value was found to be 86.1±5.2%; the “In vivo conversion efficiency (%) to: 1,6-hexanediol” value was 53.8±1.4% and 57.2 ± 0.6%; the “In vivo conversion efficiency (%) to: 6-hydroxyhexanoic acid” value is 9.1% and 9.1 ± 0.7%.

B3: MAP_1040c: carboxylate reductase (CAR) from M. paratuberculosis ATCC BAA-968 (protein)
chain: MSTATHDERLDRRVHELIATDPQFAAAQPDPAITAALEQPGLRLPQIIRTVLDGYADRPALGQRVVEFVTDAKTGRTSAQLLPRFETITYSEVAQRVSALGRALSDDAVHPGDRVCVLGFNSVDYATIDMALGAIGAVSVPLQTSAAISSLQPIVAETEPTLIASSVNQLSDAVQLITGAEQAPTRLVVFDYHPQVDDQREAVQDAAARLSSTGVAVQTLAELLERGKDLPAVAEPPADEDSLALLIYTSGSTGAPKGAMYPQSNVGKMWRRGSKNWFGESAASITLNFMPMSHVMGRSILYGTLGNGGTAYFAARSDLSTLLEDLELVRPTELNFVPRIWETLYGEFQRQVERRLSEAGDAGERRAVEAEVLAEQRQYLLGGRFTFAMTGSAPISPELRNWVESLLEMHLMDGYGSTEAGMVLFDGEIQRPPVIDYKLVDVPDLGYFSTDRPHPRGELLLRTENMFPGYYKRAETTAGVFDEDGYYRTGDVFAEIAPDRLVYVDRRNNVLKLAQGEFVTLAKLEAVFGNSPLIRQIYVYGNSAQPYLLAVVVPTEEALASGDPETLKPKIADSLQQVAKEAGLQSYEVPRDFIIETTPFSLENGLLTGIRKLAWPKLKQHYGERLEQMYADLAAGQANELAELRRNGAQAPVLQTVSRAAGAMLGSAASDLSPDAHFTDLGGDSLSALTFGNLLREIFDVDVPVGVIVSPANDLAAIASYIEAERQGSKRPTFASVHGRDATVVRAADLTLDKFLDAETLAAAPNLPKPATEVRTVLLTGATGFLGRYLALEWLERMDMVDGKVIALVRARSDEEARARLDKTFDSGDPKLLAHYQQLAADHLEVIAGDKGEANLGLGQDVWQRLADTVDVIVDPAALVNHVLPYSELFGPNALGTAELIRLALTSKQKPYTYVSTIGVGDQIEPGKFVENADIRQMSATRAINDSYANGYGNSKWAGEVLLREAHDLCGLPVAVFRCDMILADTTYAGQLNLPDMFTRLMLSLVATGIAPGSFYELDADGNRQRAHYDGLPVEFIAAAISTLGSQITDSDTGFQTYHVMNPYDDGVGLDEYVDWLVDAGYSIERIADYSEWLRRFETSLRALPDRQRQYSLLPLLHNYRTPEKPINGSIAPTDVFRAAVQEAKIGPDKDIPHVSPPVIVKYITDLQLLGLL
In the case of B3, in data set [1], the “Activity [U/mg protein] 4-hydroxybutyric acid, 5 mM” value was found to be 0.014 ± 0.006 U/mg protein and the “Activity [U/mg protein] adipic acid, 5 mM” value is reported as 0.053 ± 0.006 U/mg protein. In addition, in data set [2], the “In vitro conversion efficiency % to: 1,6-hexanediol” value was found to be 15.4 ± 1.7% and the “In vitro conversion efficiency % to: 6-hydroxyhexanoic acid” value came to 5.8 ± 0.2%. The “In vivo conversion efficiency (%) to: 1,4-butanediol” value in data set [3] is 81.6 ± 18.3%. Besides, in data set [4], the “In vivo conversion efficiency (%) to: 1,4-butanediol” value came out at 81.6 ± 18.3%, the “In vivo conversion efficiency (%) to: 1,6-hexanediol” value is listed as 15.4 ± 1.7% and the “In vivo conversion efficiency (%) to: 6-hydroxyhexanoic acid” value worked out at 5.8 ± 0.2%.
